Residue numbers refer to the chain shown, from its start.

From patent publication US20140120095A1 (Boehringer Ingelheim, published 2014) come the findings set out here.

The labels stand for the following.
B1: DLLBII107C03 (VHH)
VHH: EVQLVESGGGLVQPGGSLRLSCEVSGSIGSVSDMRWYRQAPGLQYELVARITSGSITDYSDSVKGRFTISRDNAKNTVYLQMNSLKPEDTAVYYCNADVQHSAWLKPLTYWGQGTQVTVSS
B2: DLLBII104A03 (VHH)
VHH: EVQLVESGGGLVQAGGSLRLSCAASGDIPRIAAMGWYRQAPGKQRELVATVSNAATTRYADSAKGRFTISRDNAKTVSLQMDNLKPEDTGVYYCYSLATTVTPSWVNYWGQGTQVTVSS
B3: DLLBII101H05 (VHH)
VHH: EVQLVESGGGSAQAGGSLRLSCAASGRTSSTYAMGWFRQAPGKEHEFVSAIGRGTGATSYGDSVKGRFTISRDNAKNTVYLQMNSLQLEDTGDYYCVAGRGFYHDYSSYEYRGQGTQVTVSS
B4: DLLBII102F08 (VHH)
VHH: EVQLVESGGGLVQTGDSLRLSCAASGSTFSNYRMGWFRQGPGKEREFVAAIGRNGQNTYYTDSVKGRFTVTRDNAKNMVYLQMNSLKPEDSAVYTCAASLRGWDTTRIDYEYWGQGTQVTVSS
B5: DLLBII112A03 (VHH)
VHH: EVQLVESGGGLVQPGGSLRLSCAASGIRFSINGMGWYRQAPGKQREAVATITRGGIRDYTDSVKGRFTISRDIARNTVYLQMNNLKPEDSAVYYCNIDIYWGRGTQVTVSS
B6: DLLBII104B05 (VHH)
VHH: EVQLVESGGGSVQAGGSLRLSCAASGSISRIDVMAWYRQAPGKERELVASISSGGSTNYADSVKGRFTISREYFKNMMYLQMNSLKFEDTAVYYCNADSRRGGVGNFFRSWGQGTQVTVSS
B7: DLLBII102G04 (VHH)
VHH: EVQLMESGGGLVQPGGSLRLSCAASGFTFSSYAMSWVRQAPGKGLEWVSRITSGGRTTYRDSVKGRFTISRDNSKNTLYLQMNSLKPEDTALYYCAKARGDIDVYTLSDSRGQGTQVTVSS
B8: DLLBII101H09 (VHH)
VHH: EVQLVESGGGLVQPGGSLRLSCAASGFTLGYYTIVWFRQAPGKERKGVSCISSRDGSRYYADSVKGRFTISRDNAKNTVYLRMNSLKPEDTAVYYCAAGPDCSSYDYWGQGTQVTVSS
B9: DLLBII47D01 (VHH)
VHH: EVQLVESGGGLVQPGGSLRLSCAASGFTFDDYAIGWFRQAPGKEREGVSCISSSGSTYYADSVKGRFTISRDNAKNTVYLQMNSLKPEDTAVYYCAIAGASSWCFPPGYWGQGTQVTVSS
B10: DLLBII112E07 (VHH)
VHH: EVQLVESGGGLVQAGGSLRLSCAASGRTVRSYATGWFRQAPGKEREFVAALRWSIGSIASVYYDDSVKGRFTISGDNAENTVYLQMNALKPEDTAIYYCASTTRGRYSALSASAYDYWGQGTQVTVSS
B11: DLLBII112A04 (VHH)
VHH: EVQLVESGGGLVQAGGSLRLSCAAFGRTPYGMGWFRQAPGKEREFVAAITSDGSTNYADSVKGRFTISRDNAKNAVSLQMNSLKPEDTAVYYCTAPYYSDFEGTTTEYDYWGQGTQVTVSS
B12: DLLBII129H04 (VHH)
VHH: EVQLVESRGGLVQAGGSLRLSCAASGRTFSSYAMAWFRQAPGKEREYVAAIRWSGGTAYYADSVQGRFTISRDNAKNTVYLQMNSLKPEDTAVYYCANRAPDTRLEPYLYDHWGQGTQVTVSS
B13: DLLBII130A05 (VHH)
VHH: B12 VHH with R8G, F37Y, E106G
B14: DLLBII129G10 (VHH)
VHH: B12 VHH with R8G, F37Y, G66S, L109E
B15: DLLBII129G09 (VHH)
VHH: B12 VHH with R8G, F37Y, G56E
B16: DLLBII129H05 (VHH)
VHH: B12 VHH with R8G, F37Y, Q39L, E106G, H112Y
B17: DLLBII130E03 (VHH)
VHH: B12 VHH with R8G, F37Y, L109E
B18: DLLBII129E03 (VHH)
VHH: B12 VHH with R8G, E44D, E106A, H112Y
B19: DLLBII129B02 (VHH)
VHH: B12 VHH with R8G, R19S, F37Y, L109E
B20: DLLBII130D06 (VHH)
VHH: B12 VHH with R8G, A23S, F37Y, G56E
B21: DLLBII129D01 (VHH)
VHH: B12 VHH with R8G, G66S, S71T
B22: DLLBII130B02 (VHH)
VHH: B12 VHH with R8G, N84Y, E106A
B23: DLLBII129H02 (VHH)
VHH: B12 VHH with R8G, F37Y, E106R, L109E, H112Y
B24: DLLBII130B04 (VHH)
VHH: B12 VHH with R8G, E106R
B25: DLLBII129E07 (VHH)
VHH: B12 VHH with R8G, A23S, F37Y, A61P, E106A, L109E

T4 sequence (Q9JI71 27-532): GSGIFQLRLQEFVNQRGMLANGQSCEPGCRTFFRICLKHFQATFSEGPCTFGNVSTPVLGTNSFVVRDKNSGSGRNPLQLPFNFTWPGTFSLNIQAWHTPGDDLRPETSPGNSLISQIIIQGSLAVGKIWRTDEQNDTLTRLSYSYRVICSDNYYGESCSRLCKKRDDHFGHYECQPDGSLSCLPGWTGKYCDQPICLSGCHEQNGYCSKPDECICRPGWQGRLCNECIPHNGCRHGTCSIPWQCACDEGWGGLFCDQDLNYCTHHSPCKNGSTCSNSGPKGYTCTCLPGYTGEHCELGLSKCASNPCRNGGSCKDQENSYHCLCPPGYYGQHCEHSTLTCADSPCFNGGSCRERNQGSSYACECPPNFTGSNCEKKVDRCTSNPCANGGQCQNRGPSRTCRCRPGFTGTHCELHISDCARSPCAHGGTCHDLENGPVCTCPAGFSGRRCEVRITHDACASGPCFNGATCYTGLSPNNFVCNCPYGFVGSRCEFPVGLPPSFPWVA

One assay has as its target T1, human DLL4 overexpressed on cells (human, UniProt Q9NR61 27-685).
T1 construct: full length human DLL4 on CHO or HEK293 cells; also called CHO-hDLL4; CHO-hDII4
Nature of the assay: FMAT, labelled hNotch1-Fc on CHO-hDLL4, periplasmic extract. The source says: (§1) All calculations are based on the FL1_total signal which comprises the average of the fluorescence per well times the number of counts per well.
For B1, the “% inh” value was 75%.

Regarding B2, the “% inh” value was 86%.

As to B3, the “% inh” value turned out to be 85%.

B4: the “% inh” value came out at 85%.

As for B5, the “% inh” value is 72%.

On to B6, for which the “% inh” value is 86%.

On to B7, for which the “% inh” value was 86%.

As for B8, the “% inh” value was 87%.

For the molecule B9, the “% inh” value amounted to 87%.

Take B10: the “% inh” value came to 80%.

With B11, the “% inh” value was 75%.

In a further assay the target is T2, mouse DLL4 overexpressed on cells (mouse, UniProt Q9JI71 27-686).
T2 construct: whole, on cells; also called CHO-mDLL4; CHO-mDII4
T2 sequence (Q9JI71 27-686): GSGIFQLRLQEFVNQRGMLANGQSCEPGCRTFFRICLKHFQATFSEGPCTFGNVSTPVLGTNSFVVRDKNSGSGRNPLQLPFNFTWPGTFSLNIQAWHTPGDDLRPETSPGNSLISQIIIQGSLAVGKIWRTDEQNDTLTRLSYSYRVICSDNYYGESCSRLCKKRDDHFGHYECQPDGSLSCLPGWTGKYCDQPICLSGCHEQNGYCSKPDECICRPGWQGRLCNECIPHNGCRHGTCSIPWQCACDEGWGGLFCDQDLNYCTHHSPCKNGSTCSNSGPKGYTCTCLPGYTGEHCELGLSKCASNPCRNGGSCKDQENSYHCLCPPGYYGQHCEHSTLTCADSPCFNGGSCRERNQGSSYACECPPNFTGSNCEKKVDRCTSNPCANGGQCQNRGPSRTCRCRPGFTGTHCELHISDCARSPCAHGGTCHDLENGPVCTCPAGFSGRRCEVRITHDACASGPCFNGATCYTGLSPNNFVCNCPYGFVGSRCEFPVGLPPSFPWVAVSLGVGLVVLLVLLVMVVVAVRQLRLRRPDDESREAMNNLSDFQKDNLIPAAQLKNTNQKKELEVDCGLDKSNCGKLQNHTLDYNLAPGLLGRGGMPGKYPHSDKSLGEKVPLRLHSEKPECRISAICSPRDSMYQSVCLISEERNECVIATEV
The assay is described as follows: FMAT, labelled hNotch1-Fc on CHO-mDLL4, periplasmic extract.
Description: as §1
Consider B1, for which the “% inh” value was found to be 80%.

On to B2, for which the “% inh” value was found to be 83%.

As to B3, the “% inh” value was determined as 83%.

In the case of B4, the “% inh” value amounted to 75%.

As to B5, the “% inh” value is 97%.

B6: the “% inh” value stood at 78%.

Turning to B7, the “% inh” value amounted to 82%.

For the molecule B8, the “% inh” value was found to be 75%.

As to B10, the “% inh” value was determined as 85%.

Regarding B11, the “% inh” value came to 90%.

The target of a further assay is T3, recombinant human DLL4 (C-terminally His-tagged extracellular domain, R&D Systems) (human, UniProt Q9NR61 25-522, biotinylated in the competition ELISA).
T3 construct: also called rhDLL4; hDLL4
The assay is described as follows: ProteOn off-rate screen, periplasmic extract, coated human DLL4. The method, then:
(§2) In a first cycle, amino acid substitutions are introduced randomly in both framework (FW) and complementary determining regions (CDR) using the error-prone PCR method. […] After a polish step, PCR products are inserted via unique restriction sites into a vector designed to facilitate phage display of the VHH library. Consecutive rounds of in-solution selections are performed using decreasing concentrations of biotinylated recombinant human DLL4 (biot-rhDLL4) and trypsin elutions. Affinity-driven selections in a third round using cold rhDLL4 (at least 100× excess over biot-rhDLL4) are also performed. No selections on murine DLL4 are included as (conservation of) cross-reactivity is assessed at the screening level. Individual mutants are produced as recombinant protein using an expression vector derived from pUC119, which contains the LacZ promoter, a resistance gene for ampicillin, a multiple cloning site and an ompA leader sequence (pAX50). E. coliTG1 cells are transformed with the expression vector library and plated on agar plates (LB+Amp+2% glucose). Single colonies are picked from the agar plates and grown in 1 mL 96-deep-well plates. VHH expression is induced by adding IPTG (1 mM). Periplasmic extracts (in a volume of ˜80 uL) are prepared according to standard methods and screened for binding to recombinant human and mouse DII4 in a ProteOn (BioRad, Hercules, Calif., USA) off-rate assay. In brief, a GLC ProteOn Sensor chip is coated with recombinant human DII4 on the “ligand channels” L2 and L4 (with L1/L3 as reference channel), while “ligand channels” […] is coated with mouse DII4. Periplasmic extract of affinity-matured clones is diluted 1/10 and injected across the “analyte channels” A1-A6. An average off-rate is calculated of the wild type clones present in the plate and served as a reference to calculate off-rate improvements.
For B12, the “fold (off-rate vs DLLBII101G08)” value is 33 fold and the koff came out at 6.8e-05 s⁻¹.

As for B13, the “fold (off-rate vs DLLBII101G08)” value was 24 fold and the koff was 7.5e-05 s⁻¹.

For the molecule B14, the “fold (off-rate vs DLLBII101G08)” value stood at 31 fold and the koff was 7.3e-05 s⁻¹.

On to B15, for which the “fold (off-rate vs DLLBII101G08)” value stood at 26 fold and the dissociation rate constant (koff) was found to be 8.8e-05 s⁻¹.

As for B16, the “fold (off-rate vs DLLBII101G08)” value came to 24 fold and the koff stood at 9.4e-05 s⁻¹.

On to B17, for which the “fold (off-rate vs DLLBII101G08)” value came out at 24 fold and the koff was determined as 7.5e-05 s⁻¹.

For the molecule B18, the “fold (off-rate vs DLLBII101G08)” value came to 20 fold and the off-rate (koff) turned out to be 0.00011 s⁻¹.

Consider B19, for which the “fold (off-rate vs DLLBII101G08)” value was found to be 30 fold and the koff is 7.6e-05 s⁻¹.

For B20, the “fold (off-rate vs DLLBII101G08)” value stood at 26 fold and the off-rate (koff) was 6.9e-05 s⁻¹.

On to B21, for which the “fold (off-rate vs DLLBII101G08)” value was 26 fold and the dissociation rate constant (koff) amounted to 8.5e-05 s⁻¹.

In the case of B22, the “fold (off-rate vs DLLBII101G08)” value turned out to be 23 fold and the dissociation rate constant (koff) was 7.8e-05 s⁻¹.

Regarding B23, the “fold (off-rate vs DLLBII101G08)” value was 23 fold and the koff came out at 9.9e-05 s⁻¹.

Take B24: the “fold (off-rate vs DLLBII101G08)” value came out at 22 fold and the koff came to 8.3e-05 s⁻¹.

Turning to B25, the “fold (off-rate vs DLLBII101G08)” value amounted to 21 fold and the koff turned out to be 0.00011 s⁻¹.

The next assay has as its target T4, recombinant mouse DLL4 (C-terminally His-tagged extracellular domain, R&D Systems) (mouse, UniProt Q9JI71 27-532).
T4 construct: extracellular domain; also called rmDLL4; mDLL4
The assay is described as follows: ProteOn off-rate screen, periplasmic extract, coated mouse DLL4. The method, then: as §2
Consider B12, for which the “fold (off-rate vs DLLBII101G08)” value was found to be 27 fold and the koff was found to be 0.00025 s⁻¹.

With B13, the “fold (off-rate vs DLLBII101G08)” value turned out to be 17 fold and the off-rate constant (koff) is 0.0003 s⁻¹.

Take B14: the “fold (off-rate vs DLLBII101G08)” value is 26 fold and the koff came to 0.00026 s⁻¹.

With B15, the “fold (off-rate vs DLLBII101G08)” value is 20 fold and the koff is 0.00034 s⁻¹.

Consider B16, for which the “fold (off-rate vs DLLBII101G08)” value was determined as 19 fold and the koff was determined as 0.00035 s⁻¹.

B17: the “fold (off-rate vs DLLBII101G08)” value is 18 fold and the koff turned out to be 0.00027 s⁻¹.

For the molecule B18, the “fold (off-rate vs DLLBII101G08)” value worked out at 18 fold and the koff amounted to 0.00036 s⁻¹.

Regarding B19, the “fold (off-rate vs DLLBII101G08)” value amounted to 26 fold and the off-rate (koff) worked out at 0.00026 s⁻¹.

In the case of B20, the “fold (off-rate vs DLLBII101G08)” value is 16 fold and the dissociation rate constant (koff) amounted to 0.00031 s⁻¹.

As for B21, the “fold (off-rate vs DLLBII101G08)” value amounted to 26 fold and the koff worked out at 0.00026 s⁻¹.

Turning to B22, the “fold (off-rate vs DLLBII101G08)” value came to 17 fold and the off-rate constant (koff) amounted to 0.00029 s⁻¹.

Turning to B23, the “fold (off-rate vs DLLBII101G08)” value came out at 19 fold and the koff turned out to be 0.00034 s⁻¹.

As for B24, the “fold (off-rate vs DLLBII101G08)” value turned out to be 17 fold and the koff worked out at 0.00029 s⁻¹.

In the case of B25, the “fold (off-rate vs DLLBII101G08)” value came out at 24 fold and the koff is 0.00028 s⁻¹.

As a reminder, the koff is the rate constant with which the complex falls apart.
